{"source": "paper PMC4278885", "key": {"[1]": {"biological_target": "GFP-binding nanobody Enhancer (camelid)", "sequence (heavy, as listed by the source)": "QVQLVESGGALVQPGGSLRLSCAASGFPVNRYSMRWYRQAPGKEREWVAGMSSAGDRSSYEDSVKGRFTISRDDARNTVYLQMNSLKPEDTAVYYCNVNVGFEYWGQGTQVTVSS", "assay": "Molecular Force Assay (Protein-MFA); Enhancer covalently on the glass slide via its C-terminus (PEG linker); GFP attached at its N-terminus to the DNA reference; reference 20 bp DNA stabilized with polyamide P1; one contact process with a single stamp; retraction 1 um/s; read-out Normalized Fluorescence (NF), 0.5 = protein bond as strong as the reference"}, "[2]": {"biological_target": "GFP-binding nanobody Enhancer (camelid)", "assay": "Molecular Force Assay (Protein-MFA); multiplexed measurement of Fig. 2B: nanobody on the glass slide, sfGFP on the DNA reference; references compared: unmodified 40 bp DNA, 40 bp DNA with propynyl bases, 20 bp DNA with polyamide P1, P2 or P3 (1 uM); pH 7.4; read-out NF"}}, "data": [{"substance": "superfolder GFP (from UniProt P42212 1-238) (natural protein)", "values": [{"measurement": "Normalized Fluorescence (NF), 20 bp DNA reference with polyamide P1", "setting": "[1]", "result": 0.353}, {"measurement": "Normalized Fluorescence (NF), 40 bp DNA reference with propynyl bases", "setting": "[2]", "result": 0.8}]}]}
